Measurements reported in article PMC9956121.

Experiments:
[1] = molecular target: acetyl-6-formylpterin-loaded MR1 C262S/hβ2m, P61769; assay: SPR; details: chain shown with the change;; parent: est. 2.0; read off a plot
[2] = molecular target: peptide-loaded HLA-A*02:01/hβ2m (photolabile peptide KILGFVFJV); assay: SPR; details: chain shown with the change;; parent: est. 0.98; read off a plot

B1: human TAPBPR (TAP binding protein, related), luminal domain R105K; K211R; R270Q (protein)
chain: KPHPAEGQWRAVDVVLDCFLAKDGAHRGALASSEDRARASLVLKQVPVLDDGSLEDFTDFQGGTLAQDDPPIIFEASVDLVQIPQAEALLHADSSGKEVTCEISKYFLQMTETTVKTAAWFMANMQVSGGGPSISLVMKTPRVTKNEALWHPTLNLPLSPQGTVRTAVEFQVMTQTQSLSFLLGSSASLDCGFSMAPGLDLISVEWRLQHRGRGQLVYSWTAGQGQAVRKGATLEPAQLGMARDASLTLPGLTIQDEGTYICQITTSLYQAQQIIQLNIQASPKVRLSLANEALLPTLICDIAGYYPLDVVVTWTREELGGSPAQVSGASFSSLRQSVAGTYSISSSLTAEPGSAGATYTCQVTHISLEEPLGASTQVVPPERR
Kd (Log10 KD (µM)) [1]: 1.8

B2: human TAPBPR (TAP binding protein, related), luminal domain K211R; R270Q (protein)
chain: KPHPAEGQWRAVDVVLDCFLAKDGAHRGALASSEDRARASLVLKQVPVLDDGSLEDFTDFQGGTLAQDDPPIIFEASVDLVQIPQAEALLHADSSGKEVTCEISRYFLQMTETTVKTAAWFMANMQVSGGGPSISLVMKTPRVTKNEALWHPTLNLPLSPQGTVRTAVEFQVMTQTQSLSFLLGSSASLDCGFSMAPGLDLISVEWRLQHRGRGQLVYSWTAGQGQAVRKGATLEPAQLGMARDASLTLPGLTIQDEGTYICQITTSLYQAQQIIQLNIQASPKVRLSLANEALLPTLICDIAGYYPLDVVVTWTREELGGSPAQVSGASFSSLRQSVAGTYSISSSLTAEPGSAGATYTCQVTHISLEEPLGASTQVVPPERR
Kd (Log10 KD (µM)) [2]: 0.1

B3: human TAPBPR (TAP binding protein, related), luminal domain S104F; K211L; R270Q (protein)
chain: KPHPAEGQWRAVDVVLDCFLAKDGAHRGALASSEDRARASLVLKQVPVLDDGSLEDFTDFQGGTLAQDDPPIIFEASVDLVQIPQAEALLHADSSGKEVTCEIFRYFLQMTETTVKTAAWFMANMQVSGGGPSISLVMKTPRVTKNEALWHPTLNLPLSPQGTVRTAVEFQVMTQTQSLSFLLGSSASLDCGFSMAPGLDLISVEWRLQHLGRGQLVYSWTAGQGQAVRKGATLEPAQLGMARDASLTLPGLTIQDEGTYICQITTSLYQAQQIIQLNIQASPKVRLSLANEALLPTLICDIAGYYPLDVVVTWTREELGGSPAQVSGASFSSLRQSVAGTYSISSSLTAEPGSAGATYTCQVTHISLEEPLGASTQVVPPERR
Kd (Log10 KD (µM)) [2]: 0.09
